± gives the uncertainty stated by the source.
Assay: self-splicing fitness, log relative to wild type (ln ratio); higher = more splicing; Tetrahymena group I intron in knt gene, E. coli kanamycin selection, DiMSum; sequences stand for … in CUCUCU…GGAGGGAAAAGUUAUCAGGCAUGCACCUGGUAGCUAGUCUUUAAACCAAUAGAUUGCAUCGGUUUAAAAGGCAAGACCGUCAAAUUGCGGGAAAGGGGUCAACAGCCGUUCAGUACCAAGUCUCAGGGGAAACUUUGAGAUGGCCUUGCAAAGGGUAUGGUAAUAAGCUGACGGACAUGGUCCUAACCACGCAGCCAAGUCCUAAGUCAACAGAUCUUCUGUUGAUAUGGAUGCAGUUCACAGACUAAAUGUCGGUCGGGGAAGAUGUAUUCUUCUCAUAAGAUAUAGUCGGACCUCUCCUUAAUGGGAGCUAGCGGAUGAAGUGAUGCAACACUGGAGCCGCUGGGAACUAAUUUGUAUGCGAAAGUAUAUUGAUUAGUUUUGGAGUACUCGUGGUCG
Method in brief: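 A randomised library covering all eight P1ex-region intron nucleotides was built with the intron in the knt kanamycin-resistance gene on pET-22b(+) and held in E. coli BL21(DE3). Cells were grown overnight at 37°C or 30°C on LB agar, with or without 25 μg/mL kanamycin, plus 100 μg/mL carbenicillin, 50 μM IPTG and 0.2% rhamnose, and pooled colonies were amplicon-sequenced on an Illumina HiSeq 2500. DiMSum fitness is the error-weighted combination of wild-type-normalised replicate fold changes, kanamycin versus none.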

Sequence: ACUUAGCAAUAUUACGGCAU
- self-splicing fitness (ln) (30 °C): -1.01 ± 0.071
- self-splicing fitness (ln) (37 °C): -0.0593 ± 0.088

Sequence: AGUUAGCAAUAUUACGGAAG
- self-splicing fitness (ln) (30 °C): -3.57 ± 0.3
- self-splicing fitness (ln) (37 °C): -3.07 ± 0.43

Sequence: GUUGAGCAAUAUUACGACGU
- self-splicing fitness (ln) (30 °C): -0.544 ± 0.11
- self-splicing fitness (ln) (37 °C): -0.345 ± 0.12

Sequence: CGUCAGCAAUAUUACGGGAC
- self-splicing fitness (ln) (30 °C): -3.95 ± 0.25
- self-splicing fitness (ln) (37 °C): -1.73 ± 0.23

Sequence: UUCGAGCAAUAUUACGUUAA
- self-splicing fitness (ln) (30 °C): -2.16 ± 0.31
- self-splicing fitness (ln) (37 °C): -1.82 ± 0.21

Sequence: GCUCAGCAAUAUUACGUCGA
- self-splicing fitness (ln) (30 °C): -3.22 ± 0.17
- self-splicing fitness (ln) (37 °C): -2.45 ± 0.16

Sequence: AGAAAGCAAUAUUACGGCCU
- self-splicing fitness (ln) (30 °C): 0.484 ± 0.11
- self-splicing fitness (ln) (37 °C): 0.212 ± 0.12

Sequence: UCGUAGCAAUAUUACGUGGG
- self-splicing fitness (ln) (30 °C): -3.54 ± 0.24
- self-splicing fitness (ln) (37 °C): -3.92 ± 0.28

Sequence: ACUGAGCAAUAUUACGACCU
- self-splicing fitness (ln) (30 °C): -1.57 ± 0.11
- self-splicing fitness (ln) (37 °C): -0.583 ± 0.13

Sequence: ACCCAGCAAUAUUACGCAUC
- self-splicing fitness (ln) (30 °C): -1.33 ± 0.076
- self-splicing fitness (ln) (37 °C): 0.0782 ± 0.098

Sequence: UCCCAGCAAUAUUACGUCAG
- self-splicing fitness (ln) (30 °C): -3.74 ± 0.16
- self-splicing fitness (ln) (37 °C): -2.83 ± 0.16

Sequence: ACGAAGCAAUAUUACGAAGU
- self-splicing fitness (ln) (30 °C): -3.44 ± 0.16
- self-splicing fitness (ln) (37 °C): -2.86 ± 0.2

Sequence: GAGCAGCAAUAUUACGCAAU
- self-splicing fitness (ln) (30 °C): -1.89 ± 0.12
- self-splicing fitness (ln) (37 °C): -1.53 ± 0.2

Sequence: AACGAGCAAUAUUACGGUCU
- self-splicing fitness (ln) (30 °C): -2.03 ± 0.093
- self-splicing fitness (ln) (37 °C): -0.898 ± 0.1

Sequence: CUCAAGCAAUAUUACGUCAA
- self-splicing fitness (ln) (30 °C): -4.09 ± 0.35
- self-splicing fitness (ln) (37 °C): -2.31 ± 0.19

Sequence: UUCUAGCAAUAUUACGCCAU
- self-splicing fitness (ln) (30 °C): -2.66 ± 0.32

Sequence: CGUUAGCAAUAUUACGUUCC
- self-splicing fitness (ln) (37 °C): -1.47 ± 0.45

Sequence: UGCCAGCAAUAUUACGCAUU
- self-splicing fitness (ln) (30 °C): -3.81 ± 0.46
- self-splicing fitness (ln) (37 °C): -1.24 ± 0.21

Sequence: UUAGAGCAAUAUUACGCGUU
- self-splicing fitness (ln) (30 °C): -2.85 ± 0.17
- self-splicing fitness (ln) (37 °C): -1.62 ± 0.17

Sequence: UCUAAGCAAUAUUACGCGUU
- self-splicing fitness (ln) (30 °C): -4.04 ± 0.34
- self-splicing fitness (ln) (37 °C): -2.77 ± 0.38

Sequence: UGGCAGCAAUAUUACGGUGC
- self-splicing fitness (ln) (30 °C): -3.3 ± 0.23
- self-splicing fitness (ln) (37 °C): -2.79 ± 0.32

Sequence: UAGGAGCAAUAUUACGGGGU
- self-splicing fitness (ln) (30 °C): -3.84 ± 0.4
- self-splicing fitness (ln) (37 °C): -2.12 ± 0.35

Sequence: GCUCAGCAAUAUUACGAGUC
- self-splicing fitness (ln) (30 °C): -4.08 ± 0.26

Sequence: CAGAAGCAAUAUUACGUGUC
- self-splicing fitness (ln) (30 °C): -3.9 ± 0.25
- self-splicing fitness (ln) (37 °C): -4 ± 0.27

Sequence: CUUCAGCAAUAUUACGACGA
- self-splicing fitness (ln) (37 °C): -1.54 ± 0.37

Sequence: CGUGAGCAAUAUUACGAGAA
- self-splicing fitness (ln) (30 °C): -3.1 ± 0.34
- self-splicing fitness (ln) (37 °C): -2.08 ± 0.24

Sequence: CUUAAGCAAUAUUACGUAUG
- self-splicing fitness (ln) (30 °C): -1.37 ± 0.056
- self-splicing fitness (ln) (37 °C): -1.24 ± 0.073

Sequence: UUUGAGCAAUAUUACGUACU
- self-splicing fitness (ln) (30 °C): -3.28 ± 0.43

Sequence: UGUAAGCAAUAUUACGGACC
- self-splicing fitness (ln) (30 °C): -1.18 ± 0.18
- self-splicing fitness (ln) (37 °C): -0.408 ± 0.18

Sequence: GACCAGCAAUAUUACGAAUA
- self-splicing fitness (ln) (30 °C): -1.74 ± 0.11
- self-splicing fitness (ln) (37 °C): -0.549 ± 0.11

Sequence: ACAGAGCAAUAUUACGAAUC
- self-splicing fitness (ln) (30 °C): -2.92 ± 0.36

Sequence: AUUGAGCAAUAUUACGGCUU
- self-splicing fitness (ln) (30 °C): -2.62 ± 0.21
- self-splicing fitness (ln) (37 °C): -0.8 ± 0.17

Sequence: UUUAAGCAAUAUUACGUGUU
- self-splicing fitness (ln) (30 °C): -3.32 ± 0.2
- self-splicing fitness (ln) (37 °C): -2.57 ± 0.22

Sequence: GUAGAGCAAUAUUACGAGCG
- self-splicing fitness (ln) (30 °C): -0.682 ± 0.17
- self-splicing fitness (ln) (37 °C): -0.875 ± 0.21

Sequence: ACUGAGCAAUAUUACGGAAC
- self-splicing fitness (ln) (37 °C): -1.92 ± 0.29

Sequence: UCCAAGCAAUAUUACGCCUU
- self-splicing fitness (ln) (30 °C): -4.12 ± 0.22
- self-splicing fitness (ln) (37 °C): -2.98 ± 0.21

Sequence: ACUGAGCAAUAUUACGGAAG
- self-splicing fitness (ln) (30 °C): -2.52 ± 0.13
- self-splicing fitness (ln) (37 °C): -1.21 ± 0.2

Sequence: CAUUAGCAAUAUUACGUGGA
- self-splicing fitness (ln) (30 °C): -3.35 ± 0.19
- self-splicing fitness (ln) (37 °C): -2.13 ± 0.13

Sequence: GCUCAGCAAUAUUACGGUCA
- self-splicing fitness (ln) (30 °C): -1.12 ± 0.09
- self-splicing fitness (ln) (37 °C): -0.085 ± 0.082

Sequence: ACGUAGCAAUAUUACGCCCG
- self-splicing fitness (ln) (30 °C): -0.224 ± 0.13
- self-splicing fitness (ln) (37 °C): -0.474 ± 0.17

Sequence: AGCGAGCAAUAUUACGUUCC
- self-splicing fitness (ln) (37 °C): -1.3 ± 0.24

Sequence: UGUAAGCAAUAUUACGGUCC
- self-splicing fitness (ln) (30 °C): -2.16 ± 0.14
- self-splicing fitness (ln) (37 °C): -1.29 ± 0.14

Sequence: CACCAGCAAUAUUACGGAAG
- self-splicing fitness (ln) (30 °C): -0.975 ± 0.049
- self-splicing fitness (ln) (37 °C): -0.0423 ± 0.072

Sequence: GGUCAGCAAUAUUACGCCUU
- self-splicing fitness (ln) (30 °C): -0.559 ± 0.051
- self-splicing fitness (ln) (37 °C): 0.122 ± 0.069

Sequence: UUACAGCAAUAUUACGAGGU
- self-splicing fitness (ln) (30 °C): -3.08 ± 0.22
- self-splicing fitness (ln) (37 °C): -2.72 ± 0.23

Sequence: GAGAAGCAAUAUUACGUCUU
- self-splicing fitness (ln) (30 °C): -2.33 ± 0.23
- self-splicing fitness (ln) (37 °C): -2.92 ± 0.36

Sequence: CUGGAGCAAUAUUACGGCGC
- self-splicing fitness (ln) (37 °C): -1.02 ± 0.41

Sequence: GUAGAGCAAUAUUACGUCUU
- self-splicing fitness (ln) (30 °C): -0.122 ± 0.075
- self-splicing fitness (ln) (37 °C): 0.195 ± 0.083

Sequence: AAAGAGCAAUAUUACGUCGU
- self-splicing fitness (ln) (30 °C): -3.75 ± 0.26
- self-splicing fitness (ln) (37 °C): -2.62 ± 0.17

Sequence: AAUUAGCAAUAUUACGCAUG
- self-splicing fitness (ln) (30 °C): -1.7 ± 0.15
- self-splicing fitness (ln) (37 °C): 0.109 ± 0.2

From the supplement of paper PMC7877785
